# According to article PMC10991234, “An evolved pyrrolysyl-tRNA synthetase with polysubstrate specificity expands the toolbox for engineering enzymes with incorporation of noncanonical amino acids” (Bioresources and Bioprocessing, 2023):
# B1: PedH (Pseudomonas putida KT2440) (protein)
# chain: AVSNEEILQDPKNPQQIVTNGLGVQGQRYSPLDLLNVNNVKELRPVWAFSFGGEKQRGQQAQPLIKDGVMYLTGSYSRVFAVDARTGKKLWQYDARLPDDIRPCCDVINRGVALYGNLVFFGTLDAKLVALNKDTGKVVWSKKVADHKEGYSISAAPMIVNGKLITGVAGGEFGVVGKIQAYNPENGELLWMRPTVEGHMGYVYKDGKAIENGISGGEAGKTWPGDLWKTGGAAPWLGGYYDPETNLILFGTGNPAPWNSHLRPGDNLYSSSRLALNPDDGTIKWHFQSTPHDGWDFDGVNELISFNYKDGGKEVKAAATADRNGFFYVLDRTNGKFIRGFPFVDKITWATGLDKDGRPIYNDASRPGAPGSEAKGSSVFVAPAFLGAKNWMPMAYNKDTGLFYVPSNEWGMDIWNEGIAYKKGAAFLGAGFTIKPLNEDYIGVLRAIDPVSGKEVWRHKNYAPLWGGVLTTKGNLVFTGTPEGFLQAFNAKTGDKVWEFQTGSGVLGSPVTWEMDGEQYVSVVSGWGGAVPLWGGEVAKRVKDFNQGGMLWTFKLPKQLQQTASVKP
# notes: recombinant, pET-28a in E. coli BL21(DE3), purified on Ni-NTA; PQQ and Pr3+ added
# Assays:
# Details in all cases: 100 mM Tris-HCl pH 8, 30°C, 1.5 µM PrCl3, 1.5 µM PQQ, 1 mM PES, 150 µM DCPIP
# purified protein [1] = substrate: CC[C@@H](C)O; test: purified protein
# purified protein [2] = substrate: CC[C@H](C)O; test: purified protein
# [3] = substrate: CO; test: dye-linked PES/DCPIP colorimetric assay, Michaelis-Menten fit; assay type: biochemical, Pseudomonas putida
protein,measurement,setting,value
B1,Km,purified protein [1],0.94 ± 0.13 mM
same,kcat,purified protein [1],0.42 ± 0.01 s⁻¹
same,kcat/Km,purified protein [1],447 M⁻¹ s⁻¹
same,Km,purified protein [2],1.07 ± 0.18 mM
same,kcat,purified protein [2],0.43 ± 0.01 s⁻¹
same,kcat/Km,purified protein [2],402 M⁻¹ s⁻¹
same,Km,[3],1.10 mM
same,kcat,[3],0.15 s⁻¹
